In the Human Domainome abundance scans (Beltran et al. 2025) one finds abundance fitness data, which are given here for 46 variants.

The chains are these.
B1: Nucleosome-remodeling factor subunit BPTF, residues 2862 to 2918; numbered along this chain, Q12830 (parent)
chain: TKKDTKLYCICKTPYDESKFYIGCDRCQNWYHGRCVGILQSEAELIDEYVCPQCQST

± gives the uncertainty stated by the source.

The data set covers variants of B1. Nature of the data set: abundance fitness (aPCA) (normalised: wild type 0, dead -1); higher = more abundant; growth selection in yeast, the domain comes from the species named. Particulars: Homo sapiens.
As for TKKDTDLYCICKTPYDESKFYIGCDRCQNWYHGRCVGILQSEAELIDEYVCPQCQST [K6D], the abundance fitness is -0.062 ± 0.084.

For the variant TKKDTELYCICKTPYDESKFYIGCDRCQNWYHGRCVGILQSEAELIDEYVCPQCQST [K6E], the abundance fitness was -0.042 ± 0.15.

With TKKDTQLYCICKTPYDESKFYIGCDRCQNWYHGRCVGILQSEAELIDEYVCPQCQST [K6Q], the abundance fitness was -0.032 ± 0.081.

On to TKKDTLLYCICKTPYDESKFYIGCDRCQNWYHGRCVGILQSEAELIDEYVCPQCQST [K6L], for which the abundance fitness was -0.085 ± 0.055.

Turning to TKKDTCLYCICKTPYDESKFYIGCDRCQNWYHGRCVGILQSEAELIDEYVCPQCQST [K6C], the abundance fitness was -0.161 ± 0.089.

Take TKKDTSLYCICKTPYDESKFYIGCDRCQNWYHGRCVGILQSEAELIDEYVCPQCQST [K6S]: the abundance fitness is -0.035 ± 0.057.

As for TKKDTILYCICKTPYDESKFYIGCDRCQNWYHGRCVGILQSEAELIDEYVCPQCQST [K6I], the abundance fitness is -0.08 ± 0.06.

With TKKDTALYCICKTPYDESKFYIGCDRCQNWYHGRCVGILQSEAELIDEYVCPQCQST [K6A], the abundance fitness was found to be 0.069 ± 0.072.

For TKKDTTLYCICKTPYDESKFYIGCDRCQNWYHGRCVGILQSEAELIDEYVCPQCQST [K6T], the abundance fitness is 0.008 ± 0.061.

As to TKKDTNLYCICKTPYDESKFYIGCDRCQNWYHGRCVGILQSEAELIDEYVCPQCQST [K6N], the abundance fitness is -0.045 ± 0.058.

Consider TKKDTRLYCICKTPYDESKFYIGCDRCQNWYHGRCVGILQSEAELIDEYVCPQCQST [K6R], for which the abundance fitness was -0.086 ± 0.071.

TKKDTVLYCICKTPYDESKFYIGCDRCQNWYHGRCVGILQSEAELIDEYVCPQCQST [K6V]: the abundance fitness is -0.161 ± 0.07.

For the variant TKKDTPLYCICKTPYDESKFYIGCDRCQNWYHGRCVGILQSEAELIDEYVCPQCQST [K6P], the abundance fitness came out at 0.034 ± 0.061.

As for TKKDTMLYCICKTPYDESKFYIGCDRCQNWYHGRCVGILQSEAELIDEYVCPQCQST [K6M], the abundance fitness is -0.013 ± 0.078.

Take TKKDTHLYCICKTPYDESKFYIGCDRCQNWYHGRCVGILQSEAELIDEYVCPQCQST [K6H]: the abundance fitness is -0.057 ± 0.057.

TKKDTGLYCICKTPYDESKFYIGCDRCQNWYHGRCVGILQSEAELIDEYVCPQCQST [K6G]: the abundance fitness was -0.071 ± 0.081.

TKKDTFLYCICKTPYDESKFYIGCDRCQNWYHGRCVGILQSEAELIDEYVCPQCQST [K6F]: the abundance fitness is -0.278 ± 0.067.

In the case of TKKTTKLYCICKTPYDESKFYIGCDRCQNWYHGRCVGILQSEAELIDEYVCPQCQST [D4T], the abundance fitness was -0.124 ± 0.066.

In the case of TKKSTKLYCICKTPYDESKFYIGCDRCQNWYHGRCVGILQSEAELIDEYVCPQCQST [D4S], the abundance fitness was -0.008 ± 0.055.

Regarding TKKHTKLYCICKTPYDESKFYIGCDRCQNWYHGRCVGILQSEAELIDEYVCPQCQST [D4H], the abundance fitness was -0.195 ± 0.06.

For TKKITKLYCICKTPYDESKFYIGCDRCQNWYHGRCVGILQSEAELIDEYVCPQCQST [D4I], the abundance fitness was -0.179 ± 0.065.

In the case of TKKRTKLYCICKTPYDESKFYIGCDRCQNWYHGRCVGILQSEAELIDEYVCPQCQST [D4R], the abundance fitness is -0.446 ± 0.062.

Consider TKKMTKLYCICKTPYDESKFYIGCDRCQNWYHGRCVGILQSEAELIDEYVCPQCQST [D4M], for which the abundance fitness was -0.088 ± 0.11.

As for TKKVTKLYCICKTPYDESKFYIGCDRCQNWYHGRCVGILQSEAELIDEYVCPQCQST [D4V], the abundance fitness is -0.215 ± 0.061.

Take TKKLTKLYCICKTPYDESKFYIGCDRCQNWYHGRCVGILQSEAELIDEYVCPQCQST [D4L]: the abundance fitness was -0.238 ± 0.059.

In the case of TKKPTKLYCICKTPYDESKFYIGCDRCQNWYHGRCVGILQSEAELIDEYVCPQCQST [D4P], the abundance fitness is -0.112 ± 0.074.

As for TKKKTKLYCICKTPYDESKFYIGCDRCQNWYHGRCVGILQSEAELIDEYVCPQCQST [D4K], the abundance fitness was -0.005 ± 0.086.

Regarding TKKYTKLYCICKTPYDESKFYIGCDRCQNWYHGRCVGILQSEAELIDEYVCPQCQST [D4Y], the abundance fitness was -0.154 ± 0.073.

TKKGTKLYCICKTPYDESKFYIGCDRCQNWYHGRCVGILQSEAELIDEYVCPQCQST [D4G]: the abundance fitness was -0.163 ± 0.063.

TKKNTKLYCICKTPYDESKFYIGCDRCQNWYHGRCVGILQSEAELIDEYVCPQCQST [D4N]: the abundance fitness was -0.087 ± 0.066.

TKKDTKCYCICKTPYDESKFYIGCDRCQNWYHGRCVGILQSEAELIDEYVCPQCQST [L7C]: the abundance fitness is -0.058 ± 0.07.

With TKKDTKDYCICKTPYDESKFYIGCDRCQNWYHGRCVGILQSEAELIDEYVCPQCQST [L7D], the abundance fitness stood at 0.023 ± 0.1.

As to TKKDTKTYCICKTPYDESKFYIGCDRCQNWYHGRCVGILQSEAELIDEYVCPQCQST [L7T], the abundance fitness was -0.012 ± 0.062.

Take TKKDTKIYCICKTPYDESKFYIGCDRCQNWYHGRCVGILQSEAELIDEYVCPQCQST [L7I]: the abundance fitness was -0.179 ± 0.092.

Regarding TKKDTKHYCICKTPYDESKFYIGCDRCQNWYHGRCVGILQSEAELIDEYVCPQCQST [L7H], the abundance fitness was found to be 0.018 ± 0.067.

For TKKDTKWYCICKTPYDESKFYIGCDRCQNWYHGRCVGILQSEAELIDEYVCPQCQST [L7W], the abundance fitness is -0.13 ± 0.076.

On to TKKDTKNYCICKTPYDESKFYIGCDRCQNWYHGRCVGILQSEAELIDEYVCPQCQST [L7N], for which the abundance fitness was 0.037 ± 0.079.

For the variant TKKDTKYYCICKTPYDESKFYIGCDRCQNWYHGRCVGILQSEAELIDEYVCPQCQST [L7Y], the abundance fitness is -0.022 ± 0.066.

TKKDTKSYCICKTPYDESKFYIGCDRCQNWYHGRCVGILQSEAELIDEYVCPQCQST [L7S]: the abundance fitness is -0.046 ± 0.057.

For the variant TKKDTKRYCICKTPYDESKFYIGCDRCQNWYHGRCVGILQSEAELIDEYVCPQCQST [L7R], the abundance fitness was -0.18 ± 0.062.

With TKKDTKVYCICKTPYDESKFYIGCDRCQNWYHGRCVGILQSEAELIDEYVCPQCQST [L7V], the abundance fitness is -0.076 ± 0.072.

On to TKKDTKKYCICKTPYDESKFYIGCDRCQNWYHGRCVGILQSEAELIDEYVCPQCQST [L7K], for which the abundance fitness was -0.219 ± 0.084.

On to TKKDTKPYCICKTPYDESKFYIGCDRCQNWYHGRCVGILQSEAELIDEYVCPQCQST [L7P], for which the abundance fitness is -0.071 ± 0.068.

As for TKKDTKFYCICKTPYDESKFYIGCDRCQNWYHGRCVGILQSEAELIDEYVCPQCQST [L7F], the abundance fitness was -0.089 ± 0.073.

With TKKDTKAYCICKTPYDESKFYIGCDRCQNWYHGRCVGILQSEAELIDEYVCPQCQST [L7A], the abundance fitness is -0.014 ± 0.071.

With TKKDTKGYCICKTPYDESKFYIGCDRCQNWYHGRCVGILQSEAELIDEYVCPQCQST [L7G], the abundance fitness is -0.005 ± 0.073.
